Kd data for 24 sequences are collected here from the Immune Epitope Database (IEDB).

Holding throughout (test): IEDB peptide-MHC binding, purified MHC/competitive/radioactivity; filed as Kd, often an IC50 or EC50 that approximates it; ≥ and ≤ were set here for values at or beyond the usual limits of such assays
Assay [1] addresses HLA-A*11:01.
The target of assay [2] is HLA-A*31:01.
Assay [3] concerns the target HLA-A*33:01.
Assay [4] has as its target HLA-A*03:01.
For assay [5], the target named is HLA-A*68:01.
The target of assay [6] is HLA-A*02:06.
In assay [7] the target is HLA-A*02:03. The following applies: source organism: Dengue virus 4 Philippines/H241/1956.
Where [8] appears, read: source organism: Vaccinia virus WR.
[9] abbreviates: source organism: Mammarenavirus lassaense.
Setting [10] is: source organism: Mammarenavirus machupoense.
[11] abbreviates: source organism: Vaccinia virus Copenhagen.
The mark [12] stands for this setting: source organism: Lassa virus Josiah.
[13] abbreviates: source organism: Mammarenavirus juninense.
[14] abbreviates: source organism: SARS coronavirus Tor2.

What is called Kd is the equilibrium constant for the complex coming apart. For the sequence QLLKILDNLR, the Kd in assay [1] (setting [8]) is 15100 nM; in assay [2] (setting [8]), 69.1 nM; in assay [3] (setting [8]), 5630 nM; in assay [4] (setting [8]), no less than 70100 nM; in assay [5] (setting [8]), 561 nM.

On to EMVDELVTR, for which the equilibrium dissociation constant (Kd) in assay [1] (setting [8]) was no less than 40900 nM; in assay [2] (setting [8]), 28.5 nM; in assay [3] (setting [8]), 94.3 nM; in assay [4] (setting [8]), no less than 78000 nM; in assay [5] (setting [8]), 2.54 nM.

Regarding LISLNSMYTR, the Kd in assay [1] (setting [8]) was 22.8 nM; in assay [2] (setting [8]), 1.11 nM; in assay [3] (setting [8]), 115 nM; in assay [4] (setting [8]), 1090 nM; in assay [5] (setting [8]), 38.6 nM.

With LFSKNILKY, the Kd is 5990 nM in assay [1] (setting [8]); 3890 nM in assay [2] (setting [8]); 8620 nM in assay [3] (setting [8]); 191 nM in assay [4] (setting [8]); 444 nM in assay [5] (setting [8]).

As to TCQGSDDIKK, the equilibrium dissociation constant (Kd) was 13000 nM in assay [1] (setting [9]); 6330 nM in assay [2] (setting [9]); no less than 24200 nM in assay [3] (setting [9]); no less than 70000 nM in assay [4] (setting [9]); 4450 nM in assay [5] (setting [9]).

Consider EKFGHLCKYH, for which the Kd is no less than 69700 nM in assay [1] (setting [10]); no less than 70000 nM in assay [2] (setting [10]); no less than 70000 nM in assay [3] (setting [10]); no less than 70000 nM in assay [4] (setting [10]); no less than 70100 nM in assay [5] (setting [10]).

Regarding FQSHQLWAT, the Kd in assay [6] (source organism: Dengue virus 1 Singapore/S275/1990) came out at 25.6 nM.

In the case of YTFAISYCR, the Kd amounted to 3.35 nM in assay [1] (setting [11]); 0.933 nM in assay [2] (setting [11]); 1.73 nM in assay [3] (setting [11]); 2760 nM in assay [4] (setting [11]); 0.418 nM in assay [5] (setting [11]).

GFTATICLK: the Kd amounted to 40.3 nM in assay [1] (setting [11]); 1730 nM in assay [2] (setting [11]); 467 nM in assay [3] (setting [11]); 1890 nM in assay [4] (setting [11]); 81.5 nM in assay [5] (setting [11]).

In the case of GVIDTMRIY, the Kd in assay [1] (setting [8]) stood at 85.7 nM; in assay [2] (setting [8]), 991 nM; in assay [3] (setting [8]), 11400 nM; in assay [4] (setting [8]), 1680 nM; in assay [5] (setting [8]), 3020 nM.

Turning to LTYSQLMTLK, the Kd is 11.5 nM in assay [1] (setting [12]); 1960 nM in assay [2] (setting [12]); 10700 nM in assay [3] (setting [12]); 29.7 nM in assay [4] (setting [12]); 5 nM in assay [5] (setting [12]).

As to DFWRLYNSLK, the dissociation constant Kd is 1010 nM in assay [1] (setting [8]); 2570 nM in assay [2] (setting [8]); 3.13 nM in assay [3] (setting [8]); 1650 nM in assay [4] (setting [8]); 730 nM in assay [5] (setting [8]).

Consider TSLAIKNYY, for which the Kd in assay [1] (setting [8]) was 294 nM; in assay [2] (setting [8]) it was 2260 nM; in assay [3] (setting [8]), no less than 29300 nM; in assay [4] (setting [8]), 18200 nM; in assay [5] (setting [8]), 1670 nM.

Consider LLKILDNLR, for which the equilibrium dissociation constant (Kd) amounted to 629 nM in assay [1] (setting [8]); 20.9 nM in assay [2] (setting [8]); 86 nM in assay [3] (setting [8]); 19600 nM in assay [4] (setting [8]); 700 nM in assay [5] (setting [8]).

YSMCTGKFKV: the dissociation constant (Kd) in assay [6] (source organism: Dengue virus 2 16681-PDK53) was 54.4 nM.

Consider YITDDSDDY, for which the Kd in assay [1] (setting [8]) is no less than 77900 nM; in assay [2] (setting [8]), no less than 77900 nM; in assay [3] (setting [8]), no less than 77700 nM; in assay [4] (setting [8]), no less than 78000 nM; in assay [5] (setting [8]), no less than 77700 nM.

As for GLFKTLTGEI, the equilibrium dissociation constant (Kd) in assay [7] was 15 nM.

With MSRGYFEHMK, the Kd in assay [1] (setting [8]) was determined as 7.24 nM; in assay [2] (setting [8]), 22 nM; in assay [3] (setting [8]), 2170 nM; in assay [4] (setting [8]), 31.8 nM; in assay [5] (setting [8]), 8.88 nM.

On to GINNVQSLIK, for which the Kd in assay [1] (setting [8]) was 17.2 nM; in assay [2] (setting [8]), 16100 nM; in assay [3] (setting [8]), no less than 70000 nM; in assay [4] (setting [8]) it was 170 nM; in assay [5] (setting [8]) it was 10300 nM.

Take QQFANVISK: the Kd in assay [1] (setting [8]) was 2.38 nM; in assay [2] (setting [8]) it was 1320 nM; in assay [3] (setting [8]), no less than 28300 nM; in assay [4] (setting [8]), 55.6 nM; in assay [5] (setting [8]), 710 nM.

In the case of SKQYIHCFRK, the equilibrium dissociation constant (Kd) in assay [1] (setting [13]) was 1520 nM; in assay [2] (setting [13]), 898 nM; in assay [3] (setting [13]) it was no less than 26100 nM; in assay [4] (setting [13]), 4500 nM; in assay [5] (setting [13]) it was 2540 nM.

In the case of ATEGALNTPK, the Kd in assay [1] (setting [14]) is 4.73 nM; in assay [2] (setting [14]) it was 2820 nM; in assay [3] (setting [14]), no less than 44600 nM; in assay [4] (setting [14]), 82 nM; in assay [5] (setting [14]), 220 nM.

In the case of TTYDFLARK, the Kd in assay [1] (setting [8]) is 0.395 nM; in assay [2] (setting [8]) it was 81.1 nM; in assay [3] (setting [8]), 8530 nM; in assay [4] (setting [8]), 47.4 nM; in assay [5] (setting [8]), 105 nM.

Turning to VLEIINDKGK, the equilibrium dissociation constant (Kd) in assay [1] (setting [8]) was 2520 nM; in assay [2] (setting [8]), no less than 70000 nM; in assay [3] (setting [8]), no less than 70000 nM; in assay [4] (setting [8]) it was 10100 nM; in assay [5] (setting [8]) it was no less than 70200 nM.
